This assay deals with T1, streptavidin (UniProt P22629 37-163).
T1 construct: also called peroxidase-labeled streptavidin; streptavidin-Sepharose
Kind of assay: SPR (BiacoreX, NTA chip), fusion protein immobilised, streptavidin injected. The method, then:
The measurements of the dissociation constant were performed with a BiacoreX system and the sensor chip NTA of the company Biacore. The proteins generated during the expression described in Example 1 were investigated, i.e. FAB proteins, which had at the N terminus a peptide consisting of 15 amino acids as fusion partners and at the C terminus 6 histidines, which were needed for the immobilization on the sensor chip. The binding affinity of the proteins generated during the expression to streptavidin described in Example 1 was measured in the Biacore device according to manufacturer's instructions. The protein to be investigated is on the sensor chip, and a streptavidin solution having a defined concentration is sprayed in. The interaction (binding) between the two molecules is measured by the device and quantified as so-called resonance units (RU). For the measurement, the buffers specified by the manufacturer were used.
(SPR reads the build-up and loss of mass on a sensor chip optically.)

T1 sequence (P22629 37-163 limits assumed): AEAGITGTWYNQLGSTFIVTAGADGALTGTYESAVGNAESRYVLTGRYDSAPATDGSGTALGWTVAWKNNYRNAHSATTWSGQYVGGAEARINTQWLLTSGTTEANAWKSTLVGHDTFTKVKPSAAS

B1: FAB protein (FABP from bovine hearts) with N-terminal 15-amino-acid peptide motif 1 and C-terminal His-tag of 6 histidines (other)
chain: DLYDIDRNWVGHPQGFVGTWKLVDSKNFDDYMKSLGVGFATRQVGNMTKPTTIIEVNGDTVIIKTQSTFKNTEISFKLGVEFDETTADDRKVKSIVTLDGGKLVHVQKWNGQETSLVREMVDGKLILTLTHGTAVCTRTYEKQAHHHHHH
Regarding B1, the “RU at 500 nM streptavidin” value came to 62 RU and the “RU at 2 µM streptavidin” value amounted to 233 RU.

B2: FAB protein (FABP from bovine hearts) with N-terminal 15-amino-acid peptide motif 3 and C-terminal His-tag of 6 histidines (other)
chain: DVEAWLDERVPLVETFVGTWKLVDSKNFDDYMKSLGVGFATRQVGNMTKPTTIIEVNGDTVIIKTQSTFKNTEISFKLGVEFDETTADDRKVKSIVTLDGGKLVHVQKWNGQETSLVREMVDGKLILTLTHGTAVCTRTYEKQAHHHHHH
As for B2, the “RU at 500 nM streptavidin” value is 786 RU and the “RU at 2 µM streptavidin” value stood at 946 RU.

B3: FAB protein (FABP from bovine hearts) with N-terminal 15-amino-acid peptide motif 4 and C-terminal His-tag of 6 histidines (other)
chain: DVEAWIADPAVHFTTFVGTWKLVDSKNFDDYMKSLGVGFATRQVGNMTKPTTIIEVNGDTVIIKTQSTFKNTEISFKLGVEFDETTADDRKVKSIVTLDGGKLVHVQKWNGQETSLVREMVDGKLILTLTHGTAVCTRTYEKQAHHHHHH
Consider B3, for which the “RU at 500 nM streptavidin” value was determined as 478 RU and the “RU at 2 µM streptavidin” value came out at 644 RU.

These data come from US8076452 (dated 2011).
